{
  "source": "paper PMC9104182",
  "target": "photoconvertible fluorescent protein DendFP (Dendronephthya sp)",
  "test": "crystal structure; native DendFP crystals, hanging drop at 22 °C, 100 mM Tris-HCl pH 7.5, 0.2 M MgCl2, 20% PEG4000; eight molecules (two tetramers) in the asymmetric unit; interfaces analysed with PISA",
  "data": [
    {"substance": "photoconvertible fluorescent protein DendFP (natural protein)", "values": [
      {"measurement": "stoichiometry N", "value": 4}
    ]}
  ]
}
